Legend:
Npl3 RRM1/2 [1] = target: T1, Npl3 RRM1/2 (Saccharomyces cerevisiae, UniProt Q01560 114-282); experiment: ITC; ITC at 40 °C in NMR buffer: RRM1 and RRM1/2 25 mM Na2HPO4, 25 mM NaH2PO4 pH 6.9; RRM2 100 mM NaCl, 20 mM NaH2PO4 pH 5.5; NMR titrations at 40 °C (U2 SL I 1D spectra at 303 K); conditions: protein: recombinant; (pET28a, nickel purification)
T1 sequence: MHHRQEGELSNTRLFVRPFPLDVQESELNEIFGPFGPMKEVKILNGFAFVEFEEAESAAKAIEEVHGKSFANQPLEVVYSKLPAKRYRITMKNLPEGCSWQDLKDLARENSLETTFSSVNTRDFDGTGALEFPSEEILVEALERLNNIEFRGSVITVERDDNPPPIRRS

Npl3 RRM1 [2] = target: T2, Npl3 RRM1 (Saccharomyces cerevisiae, UniProt Q01560 114-201); experiment: as above; conditions: protein: recombinant; (pET28a, nickel purification)
T2 sequence: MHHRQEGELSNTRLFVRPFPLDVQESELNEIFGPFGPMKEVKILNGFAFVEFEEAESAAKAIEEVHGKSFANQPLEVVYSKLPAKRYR

Npl3 RRM1/2 [3] = target: T1, Npl3 RRM1/2; experiment: NMR titration; UV melting; protein destabilizes the stem; Tm decreased; ITC at 40 °C in NMR buffer: RRM1 and RRM1/2 25 mM Na2HPO4, 25 mM NaH2PO4 pH 6.9; RRM2 100 mM NaCl, 20 mM NaH2PO4 pH 5.5; NMR titrations at 40 °C (U2 SL I 1D spectra at 303 K); conditions: protein: recombinant; (pET28a, nickel purification); hairpin
Npl3 RRM1/2 R126A = target: T3, Npl3 RRM1/2 R126A (Saccharomyces cerevisiae, UniProt Q01560 114-282, R126A); experiment: ITC; ITC at 40 °C in NMR buffer: RRM1 and RRM1/2 25 mM Na2HPO4, 25 mM NaH2PO4 pH 6.9; RRM2 100 mM NaCl, 20 mM NaH2PO4 pH 5.5; NMR titrations at 40 °C (U2 SL I 1D spectra at 303 K); conditions: protein: recombinant; (pET28a)
T3 sequence: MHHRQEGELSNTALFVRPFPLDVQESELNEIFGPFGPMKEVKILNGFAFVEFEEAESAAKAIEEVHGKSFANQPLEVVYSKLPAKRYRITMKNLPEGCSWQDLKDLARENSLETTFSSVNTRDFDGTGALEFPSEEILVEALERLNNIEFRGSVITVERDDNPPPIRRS

Npl3 RRM1/2 Q214A = target: T4, Npl3 RRM1/2 Q214A (Saccharomyces cerevisiae, UniProt Q01560 114-282, Q214A); experiment: as above; conditions: protein: recombinant; (pET28a)
T4 sequence: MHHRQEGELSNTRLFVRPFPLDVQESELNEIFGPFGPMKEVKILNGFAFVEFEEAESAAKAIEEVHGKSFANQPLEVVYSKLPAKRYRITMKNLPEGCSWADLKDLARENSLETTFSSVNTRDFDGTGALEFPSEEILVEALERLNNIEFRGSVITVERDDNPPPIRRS

Npl3 RRM1/2 K217A = target: T5, Npl3 RRM1/2 K217A (Saccharomyces cerevisiae, UniProt Q01560 114-282, K217A); experiment: as above; conditions: protein: recombinant; (pET28a)
T5 sequence: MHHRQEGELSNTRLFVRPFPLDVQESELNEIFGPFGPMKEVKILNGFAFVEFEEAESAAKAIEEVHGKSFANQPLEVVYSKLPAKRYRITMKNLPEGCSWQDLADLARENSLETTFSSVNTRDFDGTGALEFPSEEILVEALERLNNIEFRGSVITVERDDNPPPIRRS

Npl3 RRM1/2 linker GGG = target: T6, Npl3 RRM1/2 linker GGG (Saccharomyces cerevisiae, UniProt Q01560 114-282, L195G;P196G;A197G); experiment: as above; conditions: protein: recombinant; (pET28a)
T6 sequence: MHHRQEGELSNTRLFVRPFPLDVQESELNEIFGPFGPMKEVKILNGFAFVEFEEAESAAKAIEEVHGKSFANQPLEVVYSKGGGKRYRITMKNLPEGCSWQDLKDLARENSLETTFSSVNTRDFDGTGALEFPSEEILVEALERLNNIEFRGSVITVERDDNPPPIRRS

Npl3 RRM1/2 F128A = target: T7, Npl3 RRM1/2 F128A (Saccharomyces cerevisiae, UniProt Q01560 114-282, F128A); experiment: as above; conditions: protein: recombinant; (pET28a)
T7 sequence: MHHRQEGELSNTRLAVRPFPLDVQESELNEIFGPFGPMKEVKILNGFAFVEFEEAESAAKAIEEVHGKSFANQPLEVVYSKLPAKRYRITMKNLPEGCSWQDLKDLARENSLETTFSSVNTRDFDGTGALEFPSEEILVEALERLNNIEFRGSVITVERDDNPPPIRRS

Npl3 RRM1/2 F229A = target: T8, Npl3 RRM1/2 F229A (Saccharomyces cerevisiae, UniProt Q01560 114-282, F229A); experiment: as above; conditions: protein: recombinant; (pET28a)
T8 sequence: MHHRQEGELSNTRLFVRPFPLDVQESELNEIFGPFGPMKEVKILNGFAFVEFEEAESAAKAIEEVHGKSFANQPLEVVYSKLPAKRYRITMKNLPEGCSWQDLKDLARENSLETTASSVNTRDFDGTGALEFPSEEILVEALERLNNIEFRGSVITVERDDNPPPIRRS

Npl3 RRM1/2 R130A = target: T9, Npl3 RRM1/2 R130A (Saccharomyces cerevisiae, UniProt Q01560 114-282, R130A); experiment: as above; conditions: protein: recombinant; (pET28a)
T9 sequence: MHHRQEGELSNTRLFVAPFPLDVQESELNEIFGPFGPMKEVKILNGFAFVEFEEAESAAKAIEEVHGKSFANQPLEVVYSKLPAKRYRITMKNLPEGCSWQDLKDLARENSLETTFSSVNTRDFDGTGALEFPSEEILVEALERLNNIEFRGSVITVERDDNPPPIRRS

[4] = target: T10, Npl3 RRM1/2 linker 3xGGGGS (Saccharomyces cerevisiae, UniProt Q01560 114-194+=GGGGSGGGGSGGGGS+198-282, internal_change); experiment: as above; conditions: protein: recombinant; (pET28a)
T10 sequence: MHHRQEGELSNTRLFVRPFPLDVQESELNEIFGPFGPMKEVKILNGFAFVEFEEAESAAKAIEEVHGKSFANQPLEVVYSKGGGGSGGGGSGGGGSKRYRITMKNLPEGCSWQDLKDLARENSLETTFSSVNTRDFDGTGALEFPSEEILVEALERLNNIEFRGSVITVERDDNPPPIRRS

Npl3 RRM1/2 Q214A+K217A = target: T11, Npl3 RRM1/2 Q214A+K217A (Saccharomyces cerevisiae, UniProt Q01560 114-282, Q214A;K217A); experiment: as above; conditions: protein: recombinant; (pET28a)
T11 sequence: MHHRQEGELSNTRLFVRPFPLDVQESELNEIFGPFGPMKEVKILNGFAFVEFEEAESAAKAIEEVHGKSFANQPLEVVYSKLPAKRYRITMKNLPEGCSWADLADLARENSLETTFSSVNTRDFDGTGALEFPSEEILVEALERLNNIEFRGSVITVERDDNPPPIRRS

Npl3 RRM2 = target: T12, Npl3 RRM2 (Saccharomyces cerevisiae, UniProt Q01560 193-282); experiment: as above; conditions: protein: recombinant; (pET28a, nickel purification)
T12 sequence: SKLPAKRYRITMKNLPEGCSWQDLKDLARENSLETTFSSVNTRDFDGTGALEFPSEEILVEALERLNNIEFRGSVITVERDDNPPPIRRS

Npl3 RRM1 [5] = target: T2, Npl3 RRM1; experiment: NMR titration; ITC at 40 °C in NMR buffer: RRM1 and RRM1/2 25 mM Na2HPO4, 25 mM NaH2PO4 pH 6.9; RRM2 100 mM NaCl, 20 mM NaH2PO4 pH 5.5; NMR titrations at 40 °C (U2 SL I 1D spectra at 303 K); conditions: protein: recombinant; (pET28a, nickel purification)

AUCUAGUGGAA (ssRNA) [C4U RNA]
Kd (Npl3 RRM1/2 [1]): 1600 nM

AUCCAA (ssRNA) [RRM1 site RNA]
Kd (Npl3 RRM1 [2]): ~16.2 µM

AUUCAGUGGAA (ssRNA) [C3U RNA]
Kd (Npl3 RRM1/2 [1]): 1800 nM

GAGCGAAUCUCUUUGCCUUUUGGCUUAGAUC (structured_RNA) [U2 snRNA stem-loop I]
binding result (Npl3 RRM1/2 [3]): binds

AUCCAGUGGAA (ssRNA) [split-iCRAC consensus RNA]
Kd (Npl3 RRM1/2 R126A): 10.7 µM | Kd (Npl3 RRM1/2 Q214A): 1700 nM | Kd (Npl3 RRM1/2 K217A): 7.5 µM | Kd (Npl3 RRM1/2 linker GGG): 3.8 µM | Kd (Npl3 RRM1/2 [1]): 500 nM | Kd (Npl3 RRM1/2 F128A): 12.8 µM | Kd (Npl3 RRM1/2 F229A): 2300 nM | Kd (Npl3 RRM1/2 R130A): 900 nM | Kd [4]: 6.8 µM | Kd (Npl3 RRM1/2 Q214A+K217A): 15.3 µM

AUCCAGUGAAA (ssRNA) [G9A RNA]
Kd (Npl3 RRM1/2 [1]): 2500 nM

AGUGGAC (ssRNA) [RRM2 site RNA]
Kd (Npl3 RRM2): 2200 nM

AUCCAAUGGAA (ssRNA) [G6A RNA]
Kd (Npl3 RRM1/2 [1]): 2200 nM

UUUUUUUU (ssRNA) [polyU 8mer RNA]
binding result (Npl3 RRM1 [5]): no binding

AUCCAGUAGAA (ssRNA) [G8A RNA]
Kd (Npl3 RRM1/2 [1]): 1900 nM

AUGGAGUCCAA (ssRNA) [inverted motif RNA]
Kd (Npl3 RRM1/2 [1]): 1200 nM

Source: PMC10630445, “RNA recognition by Npl3p reveals U2 snRNA-binding compatible with a chaperone role during splicing”
